# Laboratory results as given in PMC5486051, “BrWRKY65, a WRKY Transcription Factor, Is Involved in Regulating Three Leaf Senescence-Associated Genes in Chinese Flowering Cabbage”.
# Experiments:
# [1] = target: T1, GST-BrWRKY65 (Brassica rapa var. parachinensis …, UniProt A0ACM8RC22 1-261); assay: EMSA; shift abolished dose-dependently by unlabeled self competitor (100x, 1000x); LightShift Chemiluminescent EMSA Kit; native polyacrylamide gel (Figure 5 legend; Methods says SDS-PAGE); buffer, salt, pH and temperature not stated; conditions: protein: recombinant; tags: GST (N-terminal, pGEX-4T-1); label: 5' biotin
# [2] = target: T1, GST-BrWRKY65; assay: competition; unlabeled mutant, 100-1000x excess over N3; LightShift Chemiluminescent EMSA Kit; native polyacrylamide gel (Figure 5 legend; Methods says SDS-PAGE); buffer, salt, pH and temperature not stated; conditions: protein: recombinant; tags: GST (N-terminal, pGEX-4T-1); label: unlabeled
# [3] = target: T1, GST-BrWRKY65; assay: competition; unlabeled mutant, 100-1000x excess over N1; LightShift Chemiluminescent EMSA Kit; native polyacrylamide gel (Figure 5 legend; Methods says SDS-PAGE); buffer, salt, pH and temperature not stated; conditions: protein: recombinant; tags: GST (N-terminal, pGEX-4T-1); label: unlabeled
# [4] = target: T1, GST-BrWRKY65; assay: competition; unlabeled mutant, 100-1000x excess over N2; LightShift Chemiluminescent EMSA Kit; native polyacrylamide gel (Figure 5 legend; Methods says SDS-PAGE); buffer, salt, pH and temperature not stated; conditions: protein: recombinant; tags: GST (N-terminal, pGEX-4T-1); label: unlabeled
# T1 sequence (A0ACM8RC22 entry or part of it): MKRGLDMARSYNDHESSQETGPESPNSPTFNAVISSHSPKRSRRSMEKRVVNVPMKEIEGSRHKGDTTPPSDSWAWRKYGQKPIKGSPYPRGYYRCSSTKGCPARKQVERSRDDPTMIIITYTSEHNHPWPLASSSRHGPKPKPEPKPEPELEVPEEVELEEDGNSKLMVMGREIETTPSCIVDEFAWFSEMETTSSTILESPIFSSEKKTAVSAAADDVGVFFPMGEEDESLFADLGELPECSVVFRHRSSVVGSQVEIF
Binder,binding result [1],other results
BrDIN1 promoter W-box probe (dsDNA) DNA 1: CGAGAGACCTGATTAAGAACATCTGACTTCAATTAAACCAATCACACTAC DNA 2: GTAGTGTGATTGGTTTAATTGAAGTCAGATGTTCTTAATCAGGTCTCTCG,binds,–
BrDIN1 mutant W-box competitor (dsDNA) DNA 1: CGAGAGACCTGATTAAGAACATAAAAAATCAATTAAACCAATCACACTAC DNA 2: GTAGTGTGATTGGTTTAATTGATTTTTTATGTTCTTAATCAGGTCTCTCG,–,binding result [2]: no binding
BrNYC1 promoter W-box probe (dsDNA) DNA 1: GATCGCCAGATTGCAGTGACGGTTGACTTGAATAAAGAAAAATGAAAAAA DNA 2: TTTTTTCATTTTTCTTTATTCAAGTCAACCGTCACTGCAATCTGGCGATC,binds,–
BrNYC1 mutant W-box competitor (dsDNA) DNA 1: GATCGCCAGATTGCAGTGACGGAAAAAATGAATAAAGAAAAATGAAAAAA DNA 2: TTTTTTCATTTTTCTTTATTCATTTTTTCCGTCACTGCAATCTGGCGATC,–,binding result [3]: no binding
BrSGR1 promoter W-box probe (dsDNA) DNA 1: TTTCACTCGTATCGTAAGATTGTTGACTCCAACACGCAAACAACAAAAAC DNA 2: GTTTTTGTTGTTTGCGTGTTGGAGTCAACAATCTTACGATACGAGTGAAA,binds,–
BrSGR1 mutant W-box competitor (dsDNA) DNA 1: TTTCACTCGTATCGTAAGATTGAAAAAACCAACACGCAAACAACAAAAAC DNA 2: GTTTTTGTTGTTTGCGTGTTGGTTTTTTCAATCTTACGATACGAGTGAAA,–,binding result [4]: no binding
